Key:
HBV capsid protein Cp183 [1] = molecular target: T1, HBV capsid protein Cp183 (Hepatitis B virus, UniProt P03146 P03146:1-183); assay: FRET increase; 0.1 uM DNA; conditions: chain copies: dimer (stated); assembles into capsids; label: Cy3 and Cy5 at the two ends
Experimental: (§1) Assembly was monitored by fluorescence. All reactions were carried out at 21° C. For the Cy3 donor and Cy5 acceptor fluorophores, fluorescence emission spectra for FRET experiments was measured from 555-710 nm. For measuring FRET in titrations, donor and acceptor excitation wavelengths were 545 and 645 nm respectively. Acceptor emission was measured at 670 nm.
For comparison, DA was titrated with Cp183 and the results were compared to those obtained with GagΔ. FIGS. 4A and 4B show the spectra for HIV-1 GagΔ and HBV Cp183 respectively. Spectra obtained by titrating DA with GagΔ and Cp183 both show increases in FRET signal.

RRV capsid protein [2] = molecular target: T2, RRV capsid protein (Ross River virus, UniProt P08491 P08491:1-270); assay: intermolecular FRET; 1 uM DNA; saturates at 4 proteins per oligo; conditions: chain copies: assembles into core-like particles; about 4 per oligonucleotide; label: Cy3 (D27) or Cy5 (A27)
T2 sequence (P08491 1-270, one chain of several): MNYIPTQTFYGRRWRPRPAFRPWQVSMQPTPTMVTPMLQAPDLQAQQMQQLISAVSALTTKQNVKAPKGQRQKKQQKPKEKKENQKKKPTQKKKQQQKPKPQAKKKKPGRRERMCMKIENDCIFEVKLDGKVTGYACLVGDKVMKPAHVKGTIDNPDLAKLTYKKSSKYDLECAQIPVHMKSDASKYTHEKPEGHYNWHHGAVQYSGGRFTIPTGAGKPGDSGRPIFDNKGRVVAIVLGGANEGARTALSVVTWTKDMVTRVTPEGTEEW

HBV capsid protein Cp183 [3] = molecular target: T1, HBV capsid protein Cp183; assay: intermolecular FRET and light scattering; 1 uM DNA; maximum near 3:1 then signal falls by dilution; conditions: chain copies: dimer (stated); assembles into capsids; label: Cy3 (D27) or Cy5 (A27)
Experimental: as §1
Using the optimized A:D ratio, we evaluated the sensitivity of this FRET assay for assembly. This was necessary to determine if reaction volumes and concentrations could be lowered to physiologically relevant levels. […] The minimum detectable concentration of DNA in these assays is 50 nM. Initial results shown in FIG. 1 are protein titrations of 1 μM DNA showing the assay works under more aggressive conditions. Assembly led to an increase in FRET, that was maximal at a specific protein concentration and then fell as more protein was added.

BMV capsid protein = molecular target: T3, BMV capsid protein (Brome mosaic virus, UniProt P03602 P03602:1-189); assay: intermolecular FRET; 1 uM DNA; saturates at about 10 proteins per oligo; conditions: chain copies: assembles into capsids; label: Cy3 (D27) or Cy5 (A27)
T3 sequence: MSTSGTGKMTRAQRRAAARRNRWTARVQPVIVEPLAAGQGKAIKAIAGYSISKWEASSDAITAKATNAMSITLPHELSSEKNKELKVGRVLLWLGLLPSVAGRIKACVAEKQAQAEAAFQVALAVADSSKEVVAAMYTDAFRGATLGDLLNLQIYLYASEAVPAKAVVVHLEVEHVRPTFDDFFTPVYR

RRV capsid protein [4] = molecular target: T2, RRV capsid protein; assay: light scattering, DLS and EM; 50-170 mM NaCl; ionic strength dependent pseudo-critical concentration; conditions: chain copies: assembles into core-like particles; about 4 per oligonucleotide

T1 sequence (P03146 whole entry, one chain of several): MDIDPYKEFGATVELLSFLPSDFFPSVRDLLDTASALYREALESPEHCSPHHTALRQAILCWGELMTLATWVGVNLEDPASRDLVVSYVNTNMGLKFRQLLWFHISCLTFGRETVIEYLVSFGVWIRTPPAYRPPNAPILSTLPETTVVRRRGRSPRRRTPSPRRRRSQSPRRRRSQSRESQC

TGTGTGTGTGAAAAAAAAAAAAAAAAAAAATGTGTGTGTG (ssDNA) [DA 40-mer]
binding result (HBV capsid protein Cp183 [1]): binds

TACCCACGCTCTCGCAGTCATAATTCG (ssDNA) [27-mer D27/A27 1:1 mix]
binding result (RRV capsid protein [2]): binds
binding result (HBV capsid protein Cp183 [3]): binds
binding result (BMV capsid protein): binds

TACCCACGCTCTCGCAGTCATAATTCG (ssDNA) [unlabeled 27-mer]
binding result (RRV capsid protein [4]): binds

Source: patent US20170029907, “GENERALIZABLE ASSAY FOR VIRUS CAPSID ASSEMBLY” (Indiana University Research and Technology Corporation, published 2017)
